# From publication PMC4734654 (Nature, 2015)
# How the values were obtained:
# [1] = molecular target: OsSWEET2b, crystallisation construct (C-terminal 15 residues removed, reductively methylated) (Oryza sativa); experiment: crystal structure
# cross-linking = molecular target: the molecule itself; experiment: cross-linking
Molecule,stoichiometry N [1],stoichiometry N (cross-linking)
"OsSWEET2b, crystallisation construct (C-terminal 15 residues removed, reductively methylated) (natural protein)",3,–
"OsSWEET2b, purified in DDM for glutaraldehyde cross-linking (natural protein) MDSLYDISCFAAGLAGNIFALALFLSPVTTFKRILKAKSTERFDGLPYLFSLLNCLICLWYGLPWVADGRLLVATVNGIGAVFQLAYICLFIFYADSRKTRMKIIGLLVLVVCGFALVSHASVFFFDQPLRQQFVGAVSMASLISMFASPLAVMGVVIRSESVEFMPFYLSLSTFLMSASFALYGLLLRDFFIYFPNGLGLILGAMQLALYAYYSSNSLEVLFQ",–,3
